Experimental data as given in patent US20110112037A1, “CRYSTAL STRUCTURE” (Heptares Therapeutics Limited BioPark, priority 2008, published 2011).
Values after ≈ are worked out from the molar mass of the structure shown.

Columns and labels:
m23 mutant receptor = m23 mutant receptor (Meleagris gallopavo, UniProt P07700, A282L/F327A/F338M/M90V/R68S/Y227A); settings: FIG. 11
physchem = type: physicochemical; settings: aqueous buffer
[1] = Thermal stability of β1AR point mutants (Table 3) and of β1-m23 in detergent; type: physicochemical, turkey; settings: β1AR alanine mutants in CL2
From the text: Short-chain detergents, such as nonyl- and octyl-glucosides, are the best choice for crystallisation of small membrane proteins, but β1 was unstable in them and precipitated upon detergent exchange (Warne et al 2003). We therefore expressed β1 in an Escherichia coli expression system (Grisshammer et al) and evolved it into a conformationally thermostabilised form (β1-m23) that is stable even in short-chain detergents (Serrano PNAS). […] The receptor construct that crystallised (FIG. 1) has deletions at the N-terminus, C-terminus and in cytoplasmic loop 3 to remove regions that were predicted to be unstructured (Warne et al 2003). It also contains 8 point mutations, 6 for thermostabilisation (R68^1.59S, M90^2.52V, Y227^5.58A, A282^6.27L, F327^7.38A, F338^7.49M), one for improved expression (C116^3.27L) and one for the removal of a palmitoylation site (C358^8.53A).
The CL2 loop has been proposed to function as the switch enabling G protein activation (Burstein et al 1998) and, from the β1 structure, it is clear that this region also has an important contact to the adjacent highly conserved D^3.49R^3.50Y^3.51 motif in helix 3. […] This is mainly due to the increased distance between the Cα atoms of Arg^3.50 and Glu^6.30 in β1 (10.9 Å) and β2 (11.2 Å) compared with rhodopsin (8.7 Å). There is, however, an intrahelical interaction between Asp^3.49 and […] of the DRY motif in all three […] structures. The helical conformation of CL2 in the β1 structure positions Tyr149^3.89 sufficiently close to Asp138^3.49 of the DRY motif to allow the formation of a H-bond. Supporting evidence for this structural role of Tyr149^3.89 comes from the observation that the Y149A mutation makes β1AR much less thermally stable (Table 3). The equivalent Tyr141^3.60 in both β2 structures is in a cavity between helix 3, 4 and 6, but the biological relevance of this is unclear, due to the perturbations in this region caused by either the T4 lysozyme fusion or by the bound antibody Fab.

Sequence of m23 mutant receptor (P07700 whole entry R68S/M90V/Y227A/A282L/F327A/F338M): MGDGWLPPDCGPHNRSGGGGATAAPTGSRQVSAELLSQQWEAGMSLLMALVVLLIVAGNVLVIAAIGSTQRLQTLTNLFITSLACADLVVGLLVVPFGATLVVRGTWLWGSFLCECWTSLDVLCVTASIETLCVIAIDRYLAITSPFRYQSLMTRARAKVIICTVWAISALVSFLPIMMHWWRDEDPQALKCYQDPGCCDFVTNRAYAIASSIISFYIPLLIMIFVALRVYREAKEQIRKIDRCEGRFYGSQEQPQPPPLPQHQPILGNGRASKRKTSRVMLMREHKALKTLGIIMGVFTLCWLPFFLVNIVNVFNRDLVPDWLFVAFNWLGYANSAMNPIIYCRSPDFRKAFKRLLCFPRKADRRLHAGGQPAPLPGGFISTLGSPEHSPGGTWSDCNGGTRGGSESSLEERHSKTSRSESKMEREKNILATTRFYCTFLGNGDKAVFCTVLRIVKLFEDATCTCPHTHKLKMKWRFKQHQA

Molecule | Stability (wild type = 100) [1] | also measured
Cc1ccc(OCC(O)C(C)NC(C)C)c2c1CCC2 (stereo not shown) [ICI 118551] | – | effect on cAMP accumulation by m23 (m23 mutant receptor): does not depress the cAMP accumulation
CC(C)(C)NCC(O)COc1cccc2[nH]c(C#N)cc12 (stereo not shown) [cyanopindolol] | – | solubility (physchem): 750 µM (≈ 216 µg/mL)
F147A: β1AR point mutant F147A | 128 | –
P146A: β1AR point mutant P146A | 13 | –
Q150A: β1AR point mutant Q150A | 117 | –
R148A: β1AR point mutant R148A | 89 | –
S145A: β1AR point mutant S145A | 68 | –
S151A: β1AR point mutant S151A | 117 | –
T144A: β1AR point mutant T144A | 72 | –
Y149A: β1AR point mutant Y149A, much less thermally stable | 1 | –
